To fix the notation:
T1: HLA-DR DRB1*1101 (human)
T1 chain 1: not shown
T1 chain 2: not shown

T2: HLA-DR DRB1*0404 (human)
T2 chain 1: not shown
T2 chain 2: not shown

T3: HLA-DR DRB1*1302 (human)
T3 chain 1: not shown
T3 chain 2: not shown

T4: HLA-DR DRB1*0301 (human)
T4 chain 1: not shown
T4 chain 2: not shown

T5: HLA-DR DRB1*0405 (human)
T5 chain 1: not shown
T5 chain 2: not shown

T6: HLA-DR DRB4*0101 (human)
T6 chain 1: not shown
T6 chain 2: not shown

T7: HLA-DR DRB5*0101 (human)
T7 chain 1: not shown
T7 chain 2: not shown

T8: HLA-DR DRB1*0701 (human)
T8 chain 1: not shown
T8 chain 2: not shown

T9: HLA-DR DRB1*0401 (human)
T9 chain 1: not shown
T9 chain 2: not shown

T10: HLA-DR DRB1*0101 (human)
T10 chain 1: not shown
T10 chain 2: not shown

For one test, the target named is T1, HLA-DR DRB1*1101 (human). The test can be described thus: radiolabeled-peptide inhibition, purified HLA-DR. Particulars: remark: other sources report otherwise.
The molecule SDVWSYGVTVWELMT [9019.0089] returned an IC50 of 2640 nM.

In the case of ILLVVVLGVVFGILI [9019.0068], the IC50 is 2460 nM.

On to KIPVAIKVLRENTSP [1622.03], for which the IC50 turned out to be 4110 nM.

In turn, ITGYLYISAWPDSLP [9019.0050] came in with an IC50 of 2570 nM.

A further test deals with T2, HLA-DR DRB1*0404 (human). The experiment in a line: radiolabeled-peptide inhibition, purified HLA-DR. Particulars: remark: other sources report otherwise.
CMQIAKGMSYLEDVR [9019.0083]: the IC50 was 867 nM. That is a sub-micromolar value.

SQFLRGQECVEECRV [9019.0062]: the IC50 was determined as 4550 nM.

Consider ILLVVVLGVVFGILI [9019.0068], for which the IC50 is 3530 nM.

ISAVVGILLVVVLGV [9019.0067] showed an IC50 of 3000 nM.

Turning to KIPVAIKVLRENTSP [1622.03], the IC50 is 125 nM.

For a further test, the target named is T3, HLA-DR DRB1*1302 (human). The test can be described thus: radiolabeled-peptide inhibition, purified HLA-DR. The conditions noted are these: remark: other sources report otherwise.
On to CMQIAKGMSYLEDVR [9019.0083], for which the IC50 turned out to be 2230 nM.

With HRDLAARNVLVKSPN [9019.0085], the IC50 was determined as 116 nM.

As for ILLVVVLGVVFGILI [9019.0068], the IC50 is 478 nM.

For LQGLPREYVNARHCL [9019.0064], the IC50 is 670 nM.

AYVMAGVGSPYVSRL [9019.0077] yielded an IC50 of 402 nM.

In turn, ISAVVGILLVVVLGV [9019.0067] had an IC50 of 443 nM. This IC50 and that of the molecule before are within 1.5-fold of each other.

In turn, ITGYLYISAWPDSLP [9019.0050] showed an IC50 of 751 nM.

The next test concerns the target T4, HLA-DR DRB1*0301 (human). The experiment in a line: radiolabeled-peptide inhibition, purified HLA-DR. Particulars: remark: other sources report otherwise.
In the case of LQGLPREYVNARHCL [9019.0064], the IC50 worked out at 9000 nM.

The next test concerns the target T5, HLA-DR DRB1*0405 (human). The experiment in a line: radiolabeled-peptide inhibition, purified HLA-DR. The conditions noted are these: remark: other sources report otherwise.
For the molecule SDVWSYGVTVWELMT [9019.0089], the IC50 turned out to be 1900 nM.

The molecule HRDLAARNVLVKSPN [9019.0085] registered an IC50 of 11200 nM.

Consider ILLVVVLGVVFGILI [9019.0068], for which the IC50 is 376 nM. This IC50 lies about 30-fold lower than the previous one.

As to AYVMAGVGSPYVSRL [9019.0077], the IC50 was 596 nM. Compared with the last molecule, the IC50 is about 1.6-fold higher.

On to ISAVVGILLVVVLGV [9019.0067], for which the 50% inhibitory concentration (IC50) was found to be 447 nM.

In turn, ITGYLYISAWPDSLP [9019.0050] gave a half-inhibitory concentration (IC50) of 8.5 nM.

Another test has as its target T6, HLA-DR DRB4*0101 (human). The test can be described thus: radiolabeled-peptide inhibition, purified HLA-DR. Particulars: remark: other sources report otherwise.
In the case of CMQIAKGMSYLEDVR [9019.0083], the IC50 stood at 3000 nM. This counts as single-digit micromolar.

In turn, ILLVVVLGVVFGILI [9019.0068] came in with an IC50 of 11000 nM.

LQGLPREYVNARHCL [9019.0064] gave an IC50 of 2550 nM.

AYVMAGVGSPYVSRL [9019.0077] gave an IC50 of 5060 nM.

Consider ISAVVGILLVVVLGV [9019.0067], for which the IC50 turned out to be 3110 nM.

On to KIPVAIKVLRENTSP [1622.03], for which the half-maximal inhibitory concentration (IC50) was 7800 nM.

For ITGYLYISAWPDSLP [9019.0050], the IC50 was 270 nM.

A further test addresses T7, HLA-DR DRB5*0101 (human). The test can be described thus: radiolabeled-peptide inhibition, purified HLA-DR. The conditions noted are these: remark: other sources report otherwise.
SDVWSYGVTVWELMT [9019.0089] displayed an IC50 of 5420 nM. In other words, the single-digit micromolar range.

The molecule CMQIAKGMSYLEDVR [9019.0083] came in with an IC50 of 130 nM.

With SQFLRGQECVEECRV [9019.0062], the IC50 was determined as 7040 nM.

The molecule AYVMAGVGSPYVSRL [9019.0077] returned an IC50 of 308 nM. This IC50 is about 23-fold lower than that of the molecule before.

The molecule LREVRAVTSANIQEF [9019.0046] had an IC50 of 94 nM.

The molecule KIPVAIKVLRENTSP [1622.03] displayed an IC50 of 1500 nM. This IC50 lies about 16-fold higher than the previous one.

For the molecule ITGYLYISAWPDSLP [9019.0050], the IC50 was 67 nM.

For a further test, the target named is T8, HLA-DR DRB1*0701 (human). The experiment in a line: radiolabeled-peptide inhibition, purified HLA-DR. Particulars: remark: other sources report otherwise.
As to CMQIAKGMSYLEDVR [9019.0083], the IC50 came to 116 nM.

On to SQFLRGQECVEECRV [9019.0062], for which the IC50 is 540 nM.

On to ILLVVVLGVVFGILI [9019.0068], for which the IC50 was 780 nM. This IC50 and that of the molecule before are within 1.5-fold of each other.

Molecule LQGLPREYVNARHCL [9019.0064] displayed an IC50 of 1900 nM.

Regarding MAGVGSPYVSRLLGI [9019.0078], the IC50 is 352 nM. This IC50 is about 5.4-fold lower than that of the molecule before.

The molecule ISAVVGILLVVVLGV [9019.0067] registered an IC50 of 941 nM.

The target of another test is T9, HLA-DR DRB1*0401 (human). The experiment in a line: radiolabeled-peptide inhibition, purified HLA-DR. The conditions noted are these: remark: other sources report otherwise.
The molecule SDVWSYGVTVWELMT [9019.0089] had an IC50 of 2760 nM.

As for CMQIAKGMSYLEDVR [9019.0083], the IC50 was determined as 2650 nM.

SQFLRGQECVEECRV [9019.0062]: the IC50 turned out to be 1020 nM. This IC50 is about 2.6-fold lower than that of the molecule before.

On to HRDLAARNVLVKSPN [9019.0085], for which the IC50 amounted to 401 nM.

In turn, ILLVVVLGVVFGILI [9019.0068] displayed an IC50 of 635 nM.

Molecule LQGLPREYVNARHCL [9019.0064] returned an IC50 of 201 nM.

ISAVVGILLVVVLGV [9019.0067]: the IC50 was found to be 420 nM.

With KIPVAIKVLRENTSP [1622.03], the IC50 stood at 3860 nM. This IC50 lies about 9.2-fold higher than the previous one.

As for ITGYLYISAWPDSLP [9019.0050], the IC50 came to 243 nM.

The target in another test is T10, HLA-DR DRB1*0101 (human). The test can be described thus: radiolabeled-peptide inhibition, purified HLA-DR. Particulars: remark: other sources report otherwise.
Molecule SQFLRGQECVEECRV [9019.0062] came in with an IC50 of 462 nM.

Turning to HRDLAARNVLVKSPN [9019.0085], the IC50 was 158 nM.

With LQGLPREYVNARHCL [9019.0064], the IC50 came to 354 nM.

Take AYVMAGVGSPYVSRL [9019.0077]: the IC50 was determined as 92 nM.

In turn, LREVRAVTSANIQEF [9019.0046] returned an IC50 of 17 nM.

KIPVAIKVLRENTSP [1622.03] came in with an IC50 of 1500 nM.

Regarding ITGYLYISAWPDSLP [9019.0050], the 50% inhibitory concentration (IC50) was found to be 96 nM.

Source of the values: patent US20100310640A1.
